# Measurements reported in patent publication US20240318215A1.
# B1: N-terminal part of split T7 RNA polymerase (563 split) fused to nMag (protein)
# chain: MNTINIAKNDFSDIELAAIPFNTLADHYGERLAREQLALEHESYEMGEARFRKMFERQLKAGEVADNAAAKPLITTLLPKMIARINDWFEEVKAKRGKRPTAFQFLQEIKPEAVAYITIKTTLACLTSADNTTVQAVASAIGRAIEDEARFGRIRDLEAKHFKKNVEEQLNKRVGHVYKKAFMQVVEADMLSKGLLGGEAWSSWHKEDSIHVGVRCIEMLIESTGMVSLHRQNAGVVGQDSETIELAPEYAEAIATRAGALAGISPMFQPCVVPPKPWTGITGGGYWANGRRPLALVRTHSKKALMRYEDVYMPEVYKAINIAQNTAWKINKKVLAVANVITKWKHCPVEDIPAIEREELPMKPEDIDMNPEALTAWKRAAAAVYRKDKARKSRRISLEFMLEQANKFANHKAIWFPYNMDWRGRVYAVSMFNPQGNDMTKGLLTLAKGKPIGKEGYYWLKIHGANCAGVDKVPFPERIKFIEENHENIMACAKSPLENTWWAEQDSPFCFLAFCFEYAGVQHHGLSYNCSLPLAFDGSCSGIQHFSAMLRDEVGGRAVNLLPGGSGGHTLYAPGGYDIMGYLDQIGNRPNPQVELGPVDTSCALILCDLKQKDTPIVYASEAFLYMTGYSNAEVLGRNCRFLQSPDGMVKPKSTRKYVDSNTINTIRKAIDRNAEVQVEVVNFKKNGQRFVNFLTIIPVRDETGEYRYSMGFQCETE
# Assays:
# [1] = molecular target: pMag (F1) fused to second half of 563 T7RNAP non-star variant; experiment: cell-based or functional assay
# [2] = molecular target: pMag fused to C-terminal part of split T7 RNA polymerase, as carried on the pT7-Opto plasmid; experiment: cell-based or functional assay
# Sequence of pMag fused to C-terminal part of split T7 RNA polymerase, as carried on the pT7-Opto plasmid (chain, as listed by the source limits assumed): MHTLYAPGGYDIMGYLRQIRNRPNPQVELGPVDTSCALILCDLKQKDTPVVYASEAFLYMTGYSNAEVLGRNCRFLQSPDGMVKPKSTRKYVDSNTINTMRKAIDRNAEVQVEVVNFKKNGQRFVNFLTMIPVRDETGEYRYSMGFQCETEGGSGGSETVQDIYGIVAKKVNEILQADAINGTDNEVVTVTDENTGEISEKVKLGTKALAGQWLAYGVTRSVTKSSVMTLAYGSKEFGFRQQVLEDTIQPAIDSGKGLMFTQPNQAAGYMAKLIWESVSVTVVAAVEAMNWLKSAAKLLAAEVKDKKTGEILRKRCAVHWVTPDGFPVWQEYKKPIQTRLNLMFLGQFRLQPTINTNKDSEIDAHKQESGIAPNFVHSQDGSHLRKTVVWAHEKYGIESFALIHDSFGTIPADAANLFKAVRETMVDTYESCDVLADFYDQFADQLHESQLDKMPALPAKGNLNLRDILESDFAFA
# Sequence of pMag (F1) fused to second half of 563 T7RNAP non-star variant (chain, as listed by the source mutant limits assumed): as the sequence (chain, as listed by the source limits assumed) above, with S225R counted along it
binder,measurement,setting,value
B1,"increase of Tyr1 production (initial rate of melanin production, OD405) in blue light, strain Opto-T7RNAP(563-F1) with pT7 tyr1, 1 mg/mL arabinose",[1],5.35 fold
same,"increase of mCherry production in response to blue light, plate reader, strain Opto-T7RNAP(563-F1) with pT7 mCherry, 10 mg/mL arabinose",[1],7.4 fold
same,average pixel intensity (16-bit fluorescence scan) of the blue-light-exposed region of the pT7-Opto pellicle (pixel intensity (16-bit)),[2],10400
same,average pixel intensity (16-bit fluorescence scan) of the unexposed region of the pT7-Opto pellicle (pixel intensity (16-bit)),[2],5520
same,"average red fluorescence of the light-exposed against the unexposed area of a K. rhaeticus pT7-Opto pellicle, fluorescence scan, 0.1% arabinose",[2],1.8 fold
same,"change in mCherry blue light response from dark to bright, flow cytometry, 96-well plate, 0.1% (w/v) arabinose",[2],2.57 fold
same,"change in mCherry blue light response from dark to bright, flow cytometry, 96-well plate, no arabinose",[2],2.57 fold
same,"fold change of mCherry between dark and light states, flow cytometry, 96-well plate, 1% (w/v) arabinose",[2],1.33 fold
same,"fold change of mCherry between dark and light states, flow cytometry, 96-well plate, 10% (w/v) arabinose",[2],1.04 fold
same,"mCherry expression, blue light against dark culture, flow cytometry, K. rhaeticus pT7-Opto, 0.1% arabinose",[2],7.5 fold
